The nanobody polyreactivity screen of Harvey et al. (2022)

Test: yeast display, Sf9 membrane polyspecificity reagent, FACS + sequencing; frameworks hold sequencing errors
In short: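 Using colony PCR, genes from sorted yeast display clones were amplified, then sequenced on MiSeq at 2 × 250 and filtered by CDR length. The clones had been stained with 10% biotinylated, detergent-solubilized Sf9 membrane reagent for 1 hour at 4 °C and sorted by FACS into low and high (top ~1%) gates on anti-HA and streptavidin fluorescence. Polyreactivity labels come from the gate of origin.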

Sequence | polyreactivity (PSR sort gate)
QVQLVESGGGLVQAGGSLRLSCAASGSTFVRYAMGWYRQAPGKERELVAAISKRGGSTYYADSVKGRFTISRDNAKNTVYLQMNSLKPEDTAVYYCAAVPLSSRQYDYWGQGTQVTVSS | high polyreactivity
QVQIVESGGGLVQAGGSLRLSCAASGRIFGYNAMGWYRQAPGKERELVAAISNTGGSTYYADSVKGRFTISRDNAKNTVYLQMNSLKPEDTAVYYCNASGRRVQIWEGDYWGHGTQVTVSS | high polyreactivity
QVQLVETGGGLVQAGGSLRLSCAASGITFFRNAMGWYRQAPGKERELVAAISRGGGSTYYADSVKGRFTISRDNAKKTVYLQMNSLKPEDTAVYYCAEYKYGTGVKMDYWGQGTQVTVSS | high polyreactivity
QVQLVESGGGLVQAGGSLRLSCAASGFIFKYYAMGWYRHAPGKERELVAAISRRGGSTFYADSVKGRFTISRDNAKNTVYLQMNSLKPEDTAVYYCAKYPQTLPIDVWTWIHDYWGQGTQVTVSS | high polyreactivity
QVQLVESGGGLVQAGGSLRLICAASGSIFFPYDMGWYRQAPGKERELVASITRAGSTNYADSVKGRFTISRDNAKNTVYLQMNSLKPEDTAVYYCAARNYRQFEYGYWGQGTQVTVSS | low polyreactivity
QVQLVESGGGLVQAGGSLRLSCAASGSIFHSYAMGWYRQAPGKEREFVASITQRVGRTNYADSVKGRFTISRDNAKNTVYLQMISLKPEDTAVYYCAASSWRLYYRRDSWGQGTQVTVSS | high polyreactivity
QVQLVESGGGLVQAGGSLRLSCAASGSTFYTYAMGWYRQAPGKERELVAAISWSGGSTYYADSVKGRFTISRDNAKNTVYLQMNSLKPEDTAVYYCAADRPYAGRYWKGYHSALYDYWGQGTQVTVSS | low polyreactivity
QVQLVESGGGLVQAGGSLRLSCAASGRTFRYNAMGWYRPAPGKERELVAAITKSGGTTYYADSVKGRFTISRDNAKNTVYLQMNSLKPEDTAVYYCNAYRVVHPWEYDYWGQGTQVTVSS | high polyreactivity
QVQLVESGGGLVQAGGRLRLSCAASGFTLVGYAMGWSRQAPGKERELVAAISSGGGSTYYADSVKGRFTISRDNAKNTVYLQMNSLKPEDTAVYYCAVYVDYYGYGYWGQGTQVTVSS | high polyreactivity
QVQLVESGGGLVQAGGSLRLSCAASGITFYDYTMVWYRQAPGKESELVAVITSAGSTYYADSVKGRFTISRDNAKNTVYLQMNSLKPEDTAVYYCAAVIVSRGRKYRLDYWGQGTQVTVSS | high polyreactivity
QVQLVESGGGLVQAGGSLRLSCAASGSTFYINAMGWYRQAPGKERELVADITVRGGNTYYADSVKGRFTISRDNAKNTVYLQMNSLKPEDTAVYYCAADDWGFWYDYWGQGTQVTVSS | high polyreactivity
QVQLVESGGGLVQAGGSLRLSCAASGSIFYYNAMGWYRQAPGKERELVAAITRSGGRTYYADSVKGRFTISRDNAKTTVYLQMNSLKPEDTAVYSCAARSAGPVTTLKYYYWGHGTQVTVSS | high polyreactivity
QVQLVESGGGLVQAGGSLRLSCAASGRIFETNAMGWYRQAPGKERELVAVITRGGSTYYADSVKGSFTISRDNAKNTVYLQMNSLKPEVTALYYCNVRRLYGYGYYYWGQGTQVTVSW | low polyreactivity
QVQLVESGGGLVQAGGSLRLSCAASGFIFTVNAMGRYRQAPGKERELVAAITQSGGNRSYADSVKGRFTISSDKAKNTVYLQMNSLKPEDTAVYYCNASSDTSRYGVSTYYYWGQGTQVTVSS | low polyreactivity
QVQLVESRGGLVQAGGSLRLSCAATGSIFNNYDMGWYRQAPGKERELVADISRGGDTNYADSVKGRFTISRDNAKYTVYLQMTSLNPVDTAVYYCNATYWILDSPWRRETFDYWRQGTQVTVSS | low polyreactivity
QVQLVESGGGLVQAGGRLRLSCAASGSTFLNYAMGWYRQAPGKQRELVSSIDSSDGRTYYADSVKGRFTISRDNAKNTVYLQMNSLKPEDTEVYYCAKDSYAVELRPYSKLSSRADGYWGQGTQVTVSS | low polyreactivity

Sequence | polyreactivity (PSR sort gate)
QVQLVESGGGLVQAGGSLRLSCAASGRTFYLYAMGWYRQAPGKERELVAAINTNGARTYYADSVKGRFTISRDHAKNTVYLQMNSLIPEDTAVYYCNADAYRVIANWIYDYWGQGTQVTVSS | low polyreactivity
QEQLVESGGGLDQAGGSLRLSCAASGSTFYAYAMGWSRQATGKETELVAAISSDGTNYADSVKGRFTISRDNAKNTVYLQMNCLKPEDTAVYYCAADLLLTSSQDNDYWGQGTQVTVSS | low polyreactivity
QVQLVESGGGLVQAGGSLRLSSAASGSTLTFNAMGWYRQAPGKERELVAAISWSDTDTYYADSVKGRFTISRDNAKNTVYLQMNSLKPEDTAVYYCAATVSAYEMDYWGQGTQVTVSS | low polyreactivity
QVQLVESGGGLVQAGGSLRLSCAASGLTFQHYAMGWYRQAPGKERELVASISYSGGGTYADSVKGRFTISRDNAKNTVYLQMNSQKPEDTAVYYCATSLQRQFDYWGQGTQVTVSS | low polyreactivity
QVQLVESGGGLVQAGGSLRLSCAASGSTFTYYAMGWYSQAPGKERELVARIRASGGSTYYADSVKGRFTISRDTAKNTDYLQMNSLKPEDTAVYYCAAQLYFLYRTYDYWGQGTQVTVSS | high polyreactivity
QVQLVESGGGLVQAGGSLRLSCAASGSIFFPYVMGWYRQAPGKERELVAAITYRAGSTYYADSVKGRFTISRDHAKNTFYLQMNSLKPEDTAVYYCNKEAAPLGFVTSYYGRDYWGQGTQVTVSS | low polyreactivity
QVQLVESGGGLVQAGGSLRLSCAASGITFGRYAMGWYSQAPGKARELVASITVNGGRTYYADSVKGRFTISRDNAKNTVNLQMNSLKPEDTAVSYCAAERRNSYVLLFKYNYWGQGTQVTVSS | low polyreactivity
QDQLVESGGGLVHAGGSLRLSSAASGLTFSYYAMGWYRQAPGKERELVAAIDYSGGTTYADSVKGRFTISRDNAKNTVYLQMNSLKPEDTAVYYCADAPDGWFASGDEYWGHGTQVTVSS | high polyreactivity
QVQLVESGGGLVQAGGSLRLSCAASGFIFDINAIGWYRQAPGKERELVAAISYSGGSTYYADSVKGRFTISRDNAKNTVYLQMNSLKPEDTAVYYCAADSGPDSDEGDYWGQGTQVTVSS | low polyreactivity
QVQLVESGGGLVQAGGSLRLSCAASGSTFSYYTMGWYRQAPGKEREFVAAISNSGSRTYYADSVKGRFTISRDNAKNTVYLQMNSLKPEDTAVYYCNAAYGYRFPRDYWGQGTQVIVSS | high polyreactivity
QVQLVESGGGLVQAGGSLRISCAASGRTFYNNAMGWYRQAPGTERELVATIHNRGGTTYYADSVKGRFTISRYNAKNTVYLLMNSLKPEDTAVYYCAKSAQRYSYRYYYWGQGTQVTVSS | high polyreactivity
QVQLVESGGGLVQAGGSLRLSCAASGSTFSRYTMGWYRQAPGKERELVASITRGGSTNYADSVKGRFTISRDNAKNTVYLQMNSLKPEDTAVYYCAARTARVSRYDYWGQGTQVTVSS | high polyreactivity
QVQLVQSGGGLVQAGGSLRLSCAASGRIIGWYAMGWYRQAPGKERELVAAITWSGTSTYYADSVKGRFTISRDNAKNTVYLQMNSLKPEDTAVYYCAADSLPASAPTYYTTLESWGQGTQVTVSS | low polyreactivity
QVQLVQSCRVLLQARGSHTLSCADSGTTFGINANGCYTHSPGKERELVAAITFISGSTNYADSVKGRFTISRDNAKNTVYLQMNSLKPEDTAVYYCAADSVYYAGYDVDYWGQGTQVTVSS | low polyreactivity
QVQLVESGGGLVQAGGSLRLSCAASGSIFVDYAMGWYRQAPGKEMELVAAISSGGGSTYYADSVKGRFTISRDNAKNTVYLQMNSLKPEDTAVYYCAASVYGQHAGPGRWYTFYYWGQGTQVTVSS | low polyreactivity
